Values belong to the molecule of their own block, whether it stands above or below them. Where no end group is shown, it is not given here. The star is where a group is joined. Palmitoyl = CCCCCCCCCCCCCCCC(=O)*
Columns and labels:
[1] = system: formyl peptide receptor family (Hs_FPR1, Hs_FPR2, Mm_Fpr1, Mm_Fpr2); assay: Summary of main findings: receptor subtype selectivity and ligand bias across all readouts; set-up: species or system human and mouse; conditions: summary grade of ligand bias relative to WKYMVm; key not given
Source text: To determine ligand bias, a reference ligand is required, that is, “balanced” for the pathways tested.[37] […] We then used measurements of the activity ratio (Log (Emax/EC50)) for each receptor, ligand, and pathway in an attempt to observe any ligand bias (Fig. 6).

[2] = target: T1, Hs_FPR1 (Homo sapiens, UniProt P21462); assay: BRET receptor-RLuc8 interaction with Venus-mGsi; type: cell-based
T1 construct: expressed in transfected cells
T1 sequence (P21462 1-350): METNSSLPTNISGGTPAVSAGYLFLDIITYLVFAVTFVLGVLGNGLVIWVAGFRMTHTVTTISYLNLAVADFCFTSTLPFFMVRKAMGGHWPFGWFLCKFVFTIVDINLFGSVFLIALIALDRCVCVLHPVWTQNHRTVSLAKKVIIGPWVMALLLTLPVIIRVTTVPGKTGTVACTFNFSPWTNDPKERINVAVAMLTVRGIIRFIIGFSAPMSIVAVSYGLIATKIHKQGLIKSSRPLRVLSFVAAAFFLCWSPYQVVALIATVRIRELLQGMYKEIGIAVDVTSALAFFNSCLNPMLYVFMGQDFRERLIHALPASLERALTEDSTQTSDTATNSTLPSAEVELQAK
Method: (§1) BRET1 assays to measure FPR interaction with Venus-mGsi and Arrestin 3-yellow fluorescent protein (YFP) were performed as previously described.[31]^,[32] Briefly, all FPRs C-terminally fused to Renilla Luciferase (donor, RLuc8) were transiently transfected along with either Venus-mGsi or YFP-Arrestin 3 (acceptor) at a ratio of 1:4. 24 hours post transfection, cells were replated into white-walled, 96-well plates and cultured for a further 24–48 hours. On the day of experimentation, growth media was aspirated and replaced with 80 μl Hanks Buffered Saline Solution and equilibrated for 30 minutes. Coelenterazine h was added to each well to a final concentration of 5 μM for 5 minutes before the addition of each compound, and the plate was incubated for a further 10 minutes at 37 °C before being read on a ClarioStar Plus, with luminescence measured at 480/20 nm (donor) and 530/20 (acceptor). The BRET ratio (acceptor/donor) was determined, and the background (untreated) subtracted to give the N-BRET value.
(§2) All data were analyzed using GraphPad Prism using the nonlinear regression log(agonist) versus response (3 parameters) function for all assays, except binding, which was analyzed using the One site-FitlogIC50 function. Bias calculations were carried out following IUPHAR guidelines as described,[27]^,[37] and data were presented as the Δ Activity ratio (Log[EmaxB/EC50B])-(Log[EmaxA/EC50A]).

[3] = target: T2, Mm_Fpr2 (Mus musculus, UniProt O88536); assay: BRET receptor-RLuc8 interaction with Venus-mGsi; type: cell-based
T2 construct: expressed in transfected cells
T2 sequence (O88536 1-351): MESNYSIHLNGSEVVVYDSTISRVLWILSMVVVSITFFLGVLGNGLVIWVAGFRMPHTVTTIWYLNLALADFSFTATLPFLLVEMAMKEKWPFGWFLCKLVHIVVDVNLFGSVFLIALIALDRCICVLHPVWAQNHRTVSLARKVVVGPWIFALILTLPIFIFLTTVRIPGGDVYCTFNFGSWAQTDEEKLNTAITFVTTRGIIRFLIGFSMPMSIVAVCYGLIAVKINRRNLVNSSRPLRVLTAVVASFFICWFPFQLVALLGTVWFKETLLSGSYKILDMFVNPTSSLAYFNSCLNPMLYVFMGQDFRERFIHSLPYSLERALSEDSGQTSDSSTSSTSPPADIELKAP
Method: as §1, §2

[4] = target: T3, Hs_FPR2 (Homo sapiens, UniProt P25090); assay: BRET receptor-RLuc8 interaction with Venus-mGsi; type: cell-based
T3 construct: expressed in transfected cells
T3 sequence (P25090 1-351): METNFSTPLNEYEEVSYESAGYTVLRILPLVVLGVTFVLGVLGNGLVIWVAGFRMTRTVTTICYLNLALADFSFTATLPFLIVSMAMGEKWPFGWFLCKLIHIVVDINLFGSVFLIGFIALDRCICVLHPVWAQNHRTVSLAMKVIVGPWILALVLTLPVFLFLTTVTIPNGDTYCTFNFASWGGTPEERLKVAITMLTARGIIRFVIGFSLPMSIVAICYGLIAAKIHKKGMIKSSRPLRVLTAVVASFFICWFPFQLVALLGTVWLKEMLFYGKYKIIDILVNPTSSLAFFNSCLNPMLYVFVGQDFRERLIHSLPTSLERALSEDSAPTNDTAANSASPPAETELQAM
Method: as §1, §2

[5] = target: T4, Mm_Fpr1 (Mus musculus, UniProt P33766); assay: BRET receptor-RLuc8 interaction with Venus-mGsi; type: cell-based
T4 construct: expressed in transfected cells
T4 sequence (P33766 1-364): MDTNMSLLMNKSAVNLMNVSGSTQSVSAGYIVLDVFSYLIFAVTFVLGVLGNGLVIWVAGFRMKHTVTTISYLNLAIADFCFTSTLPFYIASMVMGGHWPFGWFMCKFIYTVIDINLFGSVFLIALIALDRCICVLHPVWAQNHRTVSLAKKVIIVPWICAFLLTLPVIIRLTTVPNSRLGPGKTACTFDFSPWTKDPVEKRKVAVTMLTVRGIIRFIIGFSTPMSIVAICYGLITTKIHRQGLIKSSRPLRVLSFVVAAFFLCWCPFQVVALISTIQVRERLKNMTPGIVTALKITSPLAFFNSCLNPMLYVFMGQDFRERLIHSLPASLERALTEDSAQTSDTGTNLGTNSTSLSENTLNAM
Method: as §1, §2

[6] = system: FPR1; conditions: at 100 nM; cited from earlier work
[7] = target: T1, Hs_FPR1; assay: BRET receptor-RLuc8 interaction with Arrestin 3-YFP; type: cell-based
Method: as §1, §2

[8] = target: T2, Mm_Fpr2; assay: as above; type: cell-based
Method: as §1, §2

[9] = target: T3, Hs_FPR2; assay: as above; type: cell-based
Method: as §1, §2

[10] = target: T4, Mm_Fpr1; assay: as above; type: cell-based
Method: as §1, §2

[11] = target: T4, Mm_Fpr1; assay: Internalization of FLAG-tagged receptors by flow cytometry; type: cell-based; conditions: Mm_Fpr1, 30 min, relative to 1 μM WKYMVm
Method: Internalization of FPRs was measured by flow cytometry.[30] Briefly, cells were incubated with Alexa Fluor 657 conjugated M1 antiflag antibody (Sigma-Aldrich Cat# F3040, RRID:AB_439712) for 30 minutes at 37 °C to label surface receptors. Cells were then incubated with the indicated concentration of ligand before washing in PBS/0.04% EDTA to remove any remaining surface antibody. Remaining fluorescence was then measured using flow cytometry on either a BD FACScalibur or Attune, recording 5000 gated events. […] As a control, some samples were left untreated, and “strip only” was measured as a readout of constitutive endocytosis, and this value was subtracted from the data. Vehicle control (0.1% DMSO) had no effect on internalization of receptors.
as §2

[12] = target: T1, Hs_FPR1; assay: ERK1/2 phosphorylation by Western blotting; type: cell-based
Method: (§3) ERK phosphorylation was detected by Western blotting as previously described.[30] Briefly, HEK293 cells stably expressing FLAG-tagged FPRs were plated into 12-well culture plates until 90% confluent. On the day of the experiment, culture media was replaced with serum-free Dulbecco’s modified Eagle’s medium and incubated for 2 hours before stimulation with the indicated compounds. After 7 minutes, the media was removed and stimulation terminated by the addition of 100 μl sample buffer (0.5% SDS, Tris (pH 6.8), glycerol, at >90 °C).
as §2

[13] = target: T2, Mm_Fpr2; assay: ERK1/2 phosphorylation by Western blotting; type: cell-based
Method: as §3, §2

[14] = target: T3, Hs_FPR2; assay: ERK1/2 phosphorylation by Western blotting; type: cell-based
Method: as §3, §2

[15] = target: T4, Mm_Fpr1; assay: ERK1/2 phosphorylation by Western blotting; type: cell-based
Method: as §3, §2

[16] = target: T5, FLAG-tagged human FPR2 (Hs_FPR2) (human, UniProt P25090 1-351); assay: cell-based or functional assay
T5 sequence (looked up): T3 sequence (P25090 1-351)

[17] = target: T6, FLAG-tagged mouse Fpr2 (Mm_Fpr2) (mouse, UniProt O88536 1-351); assay: cell-based or functional assay
T6 sequence (looked up): T2 sequence (O88536 1-351)

[18] = target: T5, FLAG-tagged human FPR2 (Hs_FPR2); assay: cell-based or functional assay; remark: listed apart in the source
[19] = target: T7, FLAG-Mm_Fpr2 C-terminally fused to Renilla Luciferase 8 (mouse, UniProt O88536 1-351); assay: cell-based or functional assay
T7 sequence (looked up): T2 sequence (O88536 1-351)

[20] = target: T8, FLAG-Hs_FPR2 C-terminally fused to Renilla Luciferase 8 (human, UniProt P25090 1-351); assay: cell-based or functional assay
T8 sequence (looked up): T3 sequence (P25090 1-351)

[21] = target: T5, FLAG-tagged human FPR2 (Hs_FPR2); assay: flow cytometry on cells; competition binding: HEK293 cells stably expressing the receptor, lifted in PBS, on ice 90 min with 10 nM K(5/6-FAM)-WKYMVm and increasing unlabeled ligand; mean fluorescence of 5000 cells as % of that without competitor; One site-Fit logIC50
[22] = target: T6, FLAG-tagged mouse Fpr2 (Mm_Fpr2); assay: as above
[23] = target: T7, FLAG-Mm_Fpr2 C-terminally fused to …; assay: cell-based or functional assay; remark: listed apart in the source
[24] = target: T8, FLAG-Hs_FPR2 C-terminally fused to …; assay: cell-based or functional assay; remark: listed apart in the source
[25] = target: T6, FLAG-tagged mouse Fpr2 (Mm_Fpr2); assay: cell-based or functional assay; remark: listed apart in the source

- Bias [1]: No
- Emax [2]: 44.1%
- Emax [3]: 87.9%
- Emax [4]: 79.2%
- Emax [5]: 37.5%
- Emax [7]: 75%
- Emax [8]: 94.3%
- Emax [9]: 94.8%
- Emax [10]: 83.1%
- agonist-induced internalization (words) [11]: full agonists
- Emax at 1 µM [12]: 141%
- Emax at 1 µM [13]: 128%
- Emax at 1 µM [14]: 125%
- Emax at 1 µM [15]: 118%
Molecule: CSCC[C@H](NC(=O)[C@@H](NC(=O)[C@H](CCSC)NC(=O)[C@H](Cc1ccc(O)cc1)NC(=O)[C@H](CCCCN)NC(=O)[C@@H](N)Cc1c[nH]c2ccccc12)C(C)C)C(N)=O [WKYMVM]
- arrestin recruitment to FPR1, Pathhunter [6]: neither WKYMVM nor ACT-389949 resulted in recruitment

- ERK1/2 phosphorylation (Western blot): Emax (% of 1 μM WKYMVm) [16]: 80.8%
- ERK1/2 phosphorylation (Western blot): Log EC50 (M) [16]: -7.47 log M
- ERK1/2 phosphorylation (Western blot): Emax (% of 1 μM WKYMVm) [17]: 141%
- ERK1/2 phosphorylation (Western blot): Log EC50 (M) [17]: -7.27 log M
- TruPath BRET: dissociation of Gαi2 from β3γ9, EC50 (receptor not given) [18]: 130 nM
- BRET of receptor-RLuc8 with Arrestin 3-YFP: Emax (% of 1 μM WKYMVm) [19]: 33.4%
- BRET of receptor-RLuc8 with Arrestin 3-YFP: Log EC50 (M) [19]: -6.58 log M
- BRET of receptor-RLuc8 with Arrestin 3-YFP: Emax (% of 1 μM WKYMVm) [20]: 25.5%
- BRET of receptor-RLuc8 with Arrestin 3-YFP: Log EC50 (M) [20]: -6.55 log M
- Log IC50 [21]: -5.27 log M
- Max Comp (%) [21]: 100%
- Log IC50 [22]: -5.38 log M
- Max Comp (%) [22]: 100%
- BRET of receptor-RLuc8 with Venus-mGsi: Emax (% of 1 μM WKYMVm) [23]: 24.2%
- BRET of receptor-RLuc8 with Venus-mGsi: Log EC50 (M) [23]: -6.78 log M
- BRET of receptor-RLuc8 with Venus-mGsi: Emax (% of 1 μM WKYMVm) [24]: 19.4%
- BRET of receptor-RLuc8 with Venus-mGsi: Log EC50 (M) [24]: -6.78 log M
- receptor internalization (flow cytometry): Emax (% of 1 μM WKYMVm) [25]: 12.3%
- receptor internalization (flow cytometry): Log EC50 (M) [25]: -10.5 log M
B1: F2Pal10 (Pal-Pal-KIHKKGMIKS) (peptide)
peptide: {Palmitoyl-Palmitoyl}-KIHKKGMIKS
notes: Pal is printed twice; the text speaks of N-terminal palmitoylation as the last step of the synthesis; also called pepducin; source: synthetic peptide (Fmoc solid phase, purified by preparative RP-HPLC)

From publication PMC12881670, “Investigation into ligand selectivity and bias at the formyl peptide receptor family” (The Journal of Pharmacology and Experimental Therapeutics, 2025)
